Consider 21 sequences from the Immune Epitope Database (IEDB).

For experiment [1], the target named is HLA-A*24:02. The experiment can be described thus: IEDB peptide-MHC binding, purified MHC/competitive/radioactivity; filed as Kd, often an IC50 or EC50 that approximates it; ≥ and ≤ were set here for values at or beyond the usual limits of such assays.
Experiment [2] concerns the target HLA-A*26:01. The description is as above.
In experiment [3] the target is HLA-A*23:01. Described as above.
For experiment [4], the target named is HLA-A*29:02. The experiment is described as above.
The target in experiment [5] is HLA-A*30:02. Described as above.
Experiment [6] concerns the target HLA-A*01:01. Described as above.
Experiment [7] addresses HLA-A*02:01. Nature of the experiment: IEDB peptide-MHC binding, purified MHC/competitive/fluorescence; ≥ and ≤ were set here for values at or beyond the usual limits of such assays.
Where [8] appears, read: source organism: Mammarenavirus whitewaterense.
The mark [9] stands for this setting: source organism: SARS coronavirus Tor2.
Where [10] appears, read: source organism: Vaccinia virus.
Setting [11] is: source organism: Mammarenavirus brazilense.
Setting [12] is: source organism: Mammarenavirus guanaritoense.
The mark [13] stands for this setting: source organism: Zaire ebolavirus.
[14] abbreviates: source organism: Dengue virus 4 Philippines/H241/1956.
Where [15] appears, read: source organism: Triticum aestivum.

A word on the Kd: it is a measure of binding affinity in units of concentration. Usually IC50 stands for the midpoint of a concentration-inhibition curve. The low end stands for greater potency, the high end for weaker potency.

Consider HDHHFTPQI, for which the Kd is not below 77.5 µM in experiment [1] (setting [8]); not below 77.9 µM in experiment [2] (setting [8]); not below 45.3 µM in experiment [3] (setting [8]); not below 78.9 µM in experiment [4] (setting [8]); not below 76.9 µM in experiment [5] (setting [8]); not below 78.1 µM in experiment [6] (setting [8]).

Regarding EYADVFHLYL, the Kd in experiment [1] (setting [9]) was 0.0167 µM; in experiment [2] (setting [9]), 1.97 µM; in experiment [3] (setting [9]) it was 0.00955 µM; in experiment [4] (setting [9]) it was 0.16 µM; in experiment [5] (setting [9]), 1.35 µM; in experiment [6] (setting [9]), 0.0855 µM.

As for YNIDKIKDV, in experiment [7] (setting [10]), the IC50 worked out at 9.18 µM.

Regarding MMSAPPAEY, the Kd is 12.7 µM in experiment [1] (setting [9]); 2.24 µM in experiment [2] (setting [9]); not below 51.1 µM in experiment [3] (setting [9]); 0.00123 µM in experiment [4] (setting [9]); 0.000112 µM in experiment [5] (setting [9]); 0.182 µM in experiment [6] (setting [9]).

Turning to SKKEGGAMY, the Kd in experiment [5] (source organism: Dengue virus 2 Jamaica/1409/1983) was not below 76.9 µM.

Regarding TKHPSLNII, the Kd in experiment [1] (setting [8]) was not below 52.1 µM; in experiment [2] (setting [8]) it was not below 77.9 µM; in experiment [3] (setting [8]), not below 53.1 µM; in experiment [4] (setting [8]), not below 78.9 µM; in experiment [5] (setting [8]), not below 76.9 µM; in experiment [6] (setting [8]) it was not below 47.1 µM.

Regarding SFYCDPKRYF, the Kd came out at 0.443 µM in experiment [1] (setting [11]), 0.0846 µM in experiment [3] (setting [11]) and 0.0294 µM in experiment [4] (setting [11]).

Consider LKILVLSIL, for which the Kd in experiment [1] (setting [12]) was 1.83 µM; in experiment [2] (setting [12]) it was not below 32.6 µM; in experiment [3] (setting [12]) it was 11.1 µM; in experiment [4] (setting [12]), 15.1 µM; in experiment [5] (setting [12]), 11 µM; in experiment [6] (setting [12]) it was 0.272 µM.

As to VSVKMFDAY, the Kd in experiment [1] (setting [9]) amounted to 10.3 µM; in experiment [2] (setting [9]), 11.5 µM; in experiment [3] (setting [9]), 10.5 µM; in experiment [4] (setting [9]), 0.0766 µM; in experiment [5] (setting [9]), 0.639 µM; in experiment [6] (setting [9]), 0.102 µM.

Sequence GIKCIKKGV yielded a half-inhibitory concentration (IC50) in experiment [7] (setting [10]) not below 102 µM.

In experiment [7] (setting [13]), HLTTLATIS came in with an IC50 of 69.8 µM.

For MSYTMCSGKF, the Kd in experiment [2] (setting [14]) came to 1.51 µM; in experiment [5] (setting [14]), 0.0818 µM; in experiment [6] (setting [14]), 7.72 µM.

As for LTQDLFLPFY, the Kd in experiment [1] (setting [9]) turned out to be 10.5 µM; in experiment [2] (setting [9]), 0.481 µM; in experiment [3] (setting [9]), 18 µM; in experiment [4] (setting [9]), 0.0535 µM; in experiment [5] (setting [9]), 0.00226 µM; in experiment [6] (setting [9]), 0.00838 µM.

For ATGFGTNET, the concentration for half-maximal inhibition (IC50) in experiment [7] (setting [13]) is not below 393 µM.

For QFEEIRNLAL, the Kd was 6.85 µM in experiment [1] (setting [15]); not below 69.7 µM in experiment [2] (setting [15]); not below 21.7 µM in experiment [3] (setting [15]); 3.88 µM in experiment [4] (setting [15]); 7.39 µM in experiment [5] (setting [15]); not below 70.4 µM in experiment [6] (setting [15]).

As to NMVYMPASW, the Kd was 4.02 µM in experiment [1] (setting [9]); not below 77.9 µM in experiment [2] (setting [9]); 0.706 µM in experiment [3] (setting [9]); not below 25.1 µM in experiment [4] (setting [9]); not below 96.8 µM in experiment [5] (setting [9]); not below 78.1 µM in experiment [6] (setting [9]).

For the sequence ISEPTIHLV, the Kd in experiment [1] (setting [12]) was not below 77.5 µM; in experiment [2] (setting [12]), not below 77.9 µM; in experiment [3] (setting [12]), 15.4 µM; in experiment [4] (setting [12]) it was not below 78.9 µM; in experiment [5] (setting [12]), 4.89 µM; in experiment [6] (setting [12]) it was 0.626 µM.

GVAGLITGG yielded an IC50 in experiment [7] (setting [13]) not below 77 µM.

Consider FSSLPSYAAY, for which the equilibrium dissociation constant (Kd) in experiment [1] (setting [9]) is not below 70.3 µM; in experiment [2] (setting [9]), 0.261 µM; in experiment [3] (setting [9]) it was not below 70 µM; in experiment [4] (setting [9]), 0.00885 µM; in experiment [5] (setting [9]), 0.00277 µM; in experiment [6] (setting [9]), 0.00204 µM.

On to CTPPALNCY, for which the Kd is not below 77.6 µM in experiment [1] (setting [9]); not below 43.6 µM in experiment [2] (setting [9]); not below 32.4 µM in experiment [3] (setting [9]); 1.3 µM in experiment [4] (setting [9]); 4.79 µM in experiment [5] (setting [9]); not below 69.4 µM in experiment [6] (setting [9]).

Regarding KATLTEGVY, in experiment [5] (setting [14]), the Kd turned out to be 0.0401 µM.
